The values that follow come from publication PMC10538476.

The assay addresses Human macrophage galactose-type lectin (MGL) isoform 2 extracellular domain (human). The experiment in a line: SAXS; MGL-ECD at 1 mg/mL in 25 mM Tris pH 8, 150 mM NaCl, 4 mM CaCl2, 25°C; ESRF BM29 beamline; oligomeric state from the estimated molecular weight.

“Human macrophage galactose-type lectin (MGL) isoform 2 extracellular domain (domain or fragment)”: the stoichiometry N is 3.

What is called stoichiometry N is the number of molecules, sites or subunits per partner or assembly.
